For 94 variants, protein stability index results are on record in the supplement of paper PMC10567573.

To fix the notation:
B1: TCAP (parent)
chain: YQRVLPLPIFTPAKMGATKEERED
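Further: lentivirally expressed fusions sorted by FACS into six bins by GFP to DsRed ratio, PSI derived from sequencing read proportions per bin multiplied by bin number.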

Variants of B1 are the subject of the series. Kind of series: protein stability index of a GFP-peptide fusion (GPS, HEK-293T) (PSI 1-6); higher = more stable. The following applies: c terminus: a fixed tail appended.
For YQRVLPTPIFTPAKMGATKEERED [L7T], the protein stability index turned out to be 1.73. Consider YQRVLPNPIFTPAKMGATKEERED [L7N], for which the protein stability index worked out at 1.54. The same measure for YQRVLPWPIFTPAKMGATKEERED [L7W]: 2.86; for YQRVLPDPIFTPAKMGATKEERED [L7D]: 2.1. On to YQRVLPKPIFTPAKMGATKEERED [L7K], for which the protein stability index amounted to 3.33.

In the case of YQRVLPYPIFTPAKMGATKEERED [L7Y], the protein stability index stood at 2.71. The result for YQRVLPEPIFTPAKMGATKEERED [L7E] reads 2.61. The same measure for YQRVLPSPIFTPAKMGATKEERED [L7S]: 2.31.

Turning to YQRVLPQPIFTPAKMGATKEERED [L7Q], the protein stability index is 2.56. On to YQRVLPVPIFTPAKMGATKEERED [L7V], for which the protein stability index turned out to be 2.4. The same measure for YQRVLPAPIFTPAKMGATKEERED [L7A]: 1.75. On to YQRVLPGPIFTPAKMGATKEERED [L7G], for which the protein stability index turned out to be 2.46. In the case of YQRVLPCPIFTPAKMGATKEERED [L7C], the protein stability index was 1.42. Turning to YQRVLPIPIFTPAKMGATKEERED [L7I], the protein stability index is 2.19. The same measure for YQRVLPHPIFTPAKMGATKEERED [L7H]: 4.72. The same measure for YQRVLPPPIFTPAKMGATKEERED [L7P]: 2.59; for YQRVLPMPIFTPAKMGATKEERED [L7M]: 2.43; for YQRVLPFPIFTPAKMGATKEERED [L7F]: 1.76.

In the case of YQRVLPLPIFTDAKMGATKEERED [P12D], the protein stability index amounted to 2.92. Take YQRVLPLPIFTHAKMGATKEERED [P12H]: the protein stability index is 3.12. The result for YQRVLPLPIFTKAKMGATKEERED [P12K] reads 3.2. The same measure for YQRVLPLPIFTYAKMGATKEERED [P12Y]: 2.74. For the variant YQRVLPLPIFTMAKMGATKEERED [P12M], the protein stability index worked out at 2.91. The result for YQRVLPLPIFTVAKMGATKEERED [P12V] reads 3.07; that for YQRVLPLPIFTRAKMGATKEERED [P12R], 3.47; that for YQRVLPLPIFTIAKMGATKEERED [P12I], 3.48. For the variant YQRVLPLPIFTEAKMGATKEERED [P12E], the protein stability index was 3.02. The result for YQRVLPLPIFTWAKMGATKEERED [P12W] reads 1.94; that for YQRVLPLPIFTGAKMGATKEERED [P12G], 3.11; that for YQRVLPLPIFTTAKMGATKEERED [P12T], 3.26. The result for YQRVLPLPIFTAAKMGATKEERED [P12A] reads 3.44. YQRVLPLPIFTSAKMGATKEERED [P12S]: the protein stability index was found to be 3.2. The same measure for YQRVLPLPIFTFAKMGATKEERED [P12F]: 2.98; for YQRVLPLPIFTLAKMGATKEERED [P12L]: 2.64; for YQRVLPLPIFTNAKMGATKEERED [P12N]: 2.82. The result for YQRVLPLPIFTCAKMGATKEERED [P12C] reads 2.16; that for YQRVLPLPIFTQAKMGATKEERED [P12Q], 3.84. Regarding YQRVLPLPLFTPAKMGATKEERED [I9L], the protein stability index is 2.41. YQRVLPLPSFTPAKMGATKEERED [I9S]: the protein stability index came out at 3.79. For the variant YQRVLPLPVFTPAKMGATKEERED [I9V], the protein stability index was determined as 2.88.

Regarding YQRVLPLPNFTPAKMGATKEERED [I9N], the protein stability index amounted to 4.47. Regarding YQRVLPLPCFTPAKMGATKEERED [I9C], the protein stability index was determined as 3.04. For the variant YQRVLPLPGFTPAKMGATKEERED [I9G], the protein stability index is 3.79. On to YQRVLPLPWFTPAKMGATKEERED [I9W], for which the protein stability index worked out at 2.2. The result for YQRVLPLPAFTPAKMGATKEERED [I9A] reads 3.96; that for YQRVLPLPHFTPAKMGATKEERED [I9H], 2.83. For YQRVLPLPPFTPAKMGATKEERED [I9P], the protein stability index turned out to be 4.02. The result for YQRVLPLPKFTPAKMGATKEERED [I9K] reads 3.96. The same measure for YQRVLPLPDFTPAKMGATKEERED [I9D]: 3.63; for YQRVLPLPYFTPAKMGATKEERED [I9Y]: 2.58. The same measure for YQRVLPLPMFTPAKMGATKEERED [I9M]: 3.07. Consider YQRVLPLPEFTPAKMGATKEERED [I9E], for which the protein stability index worked out at 4.51.

YQRVLPLPFFTPAKMGATKEERED [I9F]: the protein stability index was 2.31.

Consider YQRVLPLPQFTPAKMGATKEERED [I9Q], for which the protein stability index was determined as 3.74.

YQRVLPLPTFTPAKMGATKEERED [I9T]: the protein stability index came to 4.02. The result for YQRVLPLPRFTPAKMGATKEERED [I9R] reads 4.16; that for YQRVLGLPIFTPAKMGATKEERED [P6G], 1.9; that for YQRVLQLPIFTPAKMGATKEERED [P6Q], 1.91. The same measure for YQRVLNLPIFTPAKMGATKEERED [P6N]: 1.35. The result for YQRVLWLPIFTPAKMGATKEERED [P6W] reads 1.56; that for YQRVLVLPIFTPAKMGATKEERED [P6V], 2.17.

As for YQRVLALPIFTPAKMGATKEERED [P6A], the protein stability index came out at 2.09.

Consider YQRVLILPIFTPAKMGATKEERED [P6I], for which the protein stability index was 2.19. The result for YQRVLHLPIFTPAKMGATKEERED [P6H] reads 2.11. On to YQRVLRLPIFTPAKMGATKEERED [P6R], for which the protein stability index was found to be 1.66. The same measure for YQRVLLLPIFTPAKMGATKEERED [P6L]: 1.73; for YQRVLDLPIFTPAKMGATKEERED [P6D]: 2.62. YQRVLELPIFTPAKMGATKEERED [P6E]: the protein stability index turned out to be 2.22. On to YQRVLTLPIFTPAKMGATKEERED [P6T], for which the protein stability index is 2.05. The same measure for YQRVLFLPIFTPAKMGATKEERED [P6F]: 2.25; for YQRVLSLPIFTPAKMGATKEERED [P6S]: 1.82. Consider YQRVLCLPIFTPAKMGATKEERED [P6C], for which the protein stability index amounted to 1.72. The same measure for YQRVLMLPIFTPAKMGATKEERED [P6M]: 1.65; for YQRVLKLPIFTPAKMGATKEERED [P6K]: 1.89; for YQRVLYLPIFTPAKMGATKEERED [P6Y]: 2.35. The result for YQRVLPLPIFLPAKMGATKEERED [T11L] reads 2.71; that for YQRVLPLPIFVPAKMGATKEERED [T11V], 2.67.

For YQRVLPLPIFEPAKMGATKEERED [T11E], the protein stability index worked out at 2.52. On to YQRVLPLPIFRPAKMGATKEERED [T11R], for which the protein stability index came to 3.21. As for YQRVLPLPIFWPAKMGATKEERED [T11W], the protein stability index was 2.25. For YQRVLPLPIFSPAKMGATKEERED [T11S], the protein stability index amounted to 2.36. The same measure for YQRVLPLPIFGPAKMGATKEERED [T11G]: 3.12. In the case of YQRVLPLPIFYPAKMGATKEERED [T11Y], the protein stability index came out at 2.62. The result for YQRVLPLPIFMPAKMGATKEERED [T11M] reads 2.08; that for YQRVLPLPIFPPAKMGATKEERED [T11P], 3.31; that for YQRVLPLPIFNPAKMGATKEERED [T11N], 3.49. The result for YQRVLPLPIFKPAKMGATKEERED [T11K] reads 3.63. For YQRVLPLPIFDPAKMGATKEERED [T11D], the protein stability index came out at 3.96. The same measure for YQRVLPLPIFAPAKMGATKEERED [T11A]: 1.87; for YQRVLPLPIFFPAKMGATKEERED [T11F]: 2.25. Regarding YQRVLPLPIFHPAKMGATKEERED [T11H], the protein stability index turned out to be 3.49. On to YQRVLPLPIFCPAKMGATKEERED [T11C], for which the protein stability index was determined as 1.79. The result for YQRVLPLPIFQPAKMGATKEERED [T11Q] reads 3.44; that for YQRVLPLPIFIPAKMGATKEERED [T11I], 2.68.
